Reference: paper PMC9881579

B1: LHD206B (designed binder)
chain: GRQEKVLKSIEETVRKMGVTMETHRSGNEVKVVIKGLHKSQQEQLLKDVLKTANKQGVNVHISFRGDTVTIRVRE
modifications: not checked
B2: LHD206B, split luciferase construct (designed binder)
chain: B1 chain
modifications: here or on the partner: Strep-tag, sfGFP, GS-linker and split luciferase fragment left out; protomer taken from the unfused monovalent entry / Strep-tag, sfGFP, GS-linker and split luciferase fragment left out; protomer take

Experiments:
LHD206A [1] = assay: BLI; biotinylated protomer on streptavidin biosensors, designed partner in solution; 25 °C; 10 mM HEPES pH 7.4, 150 mM NaCl, 3 mM EDTA, 0.05% Surfactant P20, 1 mg/ml BSA; steady-state fit, 1:1 model
LHD206A [2] = assay: BLI; biotinylated protomer on streptavidin biosensors, designed partner in solution; 25 °C; 10 mM HEPES pH 7.4, 150 mM NaCl, 3 mM EDTA, 0.05% Surfactant P20, 1 mg/ml BSA; global kinetic fit, 1:1 model
[3] = target: LHD206A, split luciferase construct; assay: split reporter (BiFC, NanoBiT); smBiT:lgBiT equilibrium binding in E. coli lysate; one component at 1 nM, the other titrated; overnight at room temperature; 20 mM sodium phosphate, 100 mM NaCl, pH 7.4, 0.05% Tween 20

Binder | Kd (LHD206A [1]) | Kd (LHD206A [2]) | koff (LHD206A [2]) | kon (LHD206A [2]) | Kd [3]
B1 | 8.4 nM | 2.8 nM | 0.00075 s⁻¹ | 270000 M⁻¹ s⁻¹ | –
B2 | – | – | – | – | 11 nM
